Source: patent publication US20080242590A1, “New Method 706” (ASTRAZENECA AB, priority 2007, published 2008)

Key:
[1] = Observations of animal health (Example 25); type: in vivo, C57BL/6 mice; settings: 5 mg/kg single i.v., up to 168 hours
Method: 20-21 weeks old female C57BL/6 mice (8 mice/group) received vehicle or hFc-Nep at 5 mg/kg as a single intravenous injection and Aβ40 was analysed at different time points after injection (between 1.5-168 hours, i.e., up to 1 week). The γ-secretase inhibitor M-550426 was given per orally and the animals were treated for 3 hours. A blank group was also included in the study. […] Blood collection, plasma processing and measurement of mouse Aβ40 levels in plasma were basically as described in Example 27.

[2] = test system: fluorogenic peptide substrate V—Mca-Arg-Pro-Gly-Phe-Ser-Ala-Phe-Lys(Dnp)-OH; experiment: Neprilysin enzyme activity FRET assay, purified protein; type: biochemical; settings: purified fusion protein
Method: The Neprilysin enzymatic activity was determined in a fluorescence resonance energy transfer (FRET) assay. Recombinant Human Neprilysin (R&D Systems), culture medium from Neprilysin or Fc-Neprilysin producing cells (AZ Sodertalje) or purified Neprilysin or Fc-Neprilysin was added into 96-well plate containing 10 μM of fluorogenic peptide substrate V—Mca-Arg-Pro-Gly-Phe-Ser-Ala-Phe-Lys(Dnp)-OH (R&D Systems). The final concentration of the control recombinant human Neprilysin was 0.1 or 0.25 μg/ml. 10 μM of Neprilysin inhibitor phosphoramidone (BIOMOL) was added into some wells in order to control the specificity of the signal in the assay and verify the specific Neprilysin activity. Following addition of all components to wells, plate was immediately placed into a fluorescent plate reader (Ascent) and signal was recorded for every minute for 20 minutes at the excitation 340 nm and emission 405 nm. The activity of enzyme was evaluated by calculating the velocity of reaction−Slope coefficient=ΣΔRFU/Δt. In order to compare the specific activity of the commercial recombinant Neprilysin and Fc-Neprilysin fusion protein, we introduced the specific activity coefficient, which is calculated according to this formula: Specific activity=slope coefficient/pmol of Neprilysin or monomer of Fc-Neprilysin in assay. […]

B1: Fc-Neprilysin: extracellular domain of human Neprilysin fused to the human IgG2 Fc domain (including hinge), Fc at N-terminus; SEQ ID NO 11 (protein)
chain: ERKCCVECPPCPAPPVAGPSVFLFPPKPKDTLMISRTPEVTCVVVDVSHEDPEVQFNWYVDGVEVHNAKTKPREEQFNSTFRVVSVLTVVHQDWLNGKEYKCKVSNKGLPAPIEKTISKTKGQPREPQVYTLPPSREEMTKNQVSLTCLVKGFYPSDIAVEWESNGQPENNYKTTPPMLDSDGSFFLYSKLTVDKSRWQQGNVFSCSVMHEALHNHYTQKSLSLSPGKYDDGICKSSDCIKSAARLIQNMDATTEPCTDFFKYACGGWLKRNVIPETSSRYGNFDILRDELEVVLKDVLQEPKTEDIVAVQKAKALYRSCINESAIDSRGGEPLLKLLPDIYGWPVATENWEQKYGASWTAEKAIAQLNSKYGKKVLINLFVGTDDKNSVNHVIHIDQPRLGLPSRDYYECTGIYKEACTAYVDFMISVARLIRQEERLPIDENQLALEMNKVMELEKEIANATAKPEDRNDPMLLYNKMTLAQIQNNFSLEINGKPFSWLNFTNEIMSTVNISITNEEDVVVYAPEYLTKLKPILTKYSARDLQNLMSWRFIMDLVSSLSRTYKESRNAFRKALYGTTSETATWRRCANYVNGNMENAVGRLYVEAAFAGESKHVVEDLIAQIREVFIQTLDDLTWMDAETKKRAEEKALAIKERIGYPDDIVSNDNKLNNEYLELNYKEDEYFENIIQNLKFSQSKQLKKLREKVDKDEWISGAAVVNAFYSSGRNQIVFPAGILQPPFFSAQQSNSLNYGGIGMVIGHEITHGFDDNGRNFNKDGDLVDWWTQQSASNFKEQSQCMVYQYGNFSWDLAGGQHLNGINTLGENIADNGGLGQAYRAYQNYIKKNGEEKLLPGLDLNHKQLFFLNFAQVWCGTYRPEYAVNSIKTDVHSPGNFRIIGTLQNSAEFSEAFHCRKNSYMNPEKKCRVW
- Observations of the animal health [1]: no overt adverse effects
- Specific activity (slope coefficient/pmol) [2]: 14.1
